Experimental data reported in the supplement of paper PMC10567573.

B1: SLC2A12 (parent)
chain: CLLGLGSLVLILSLSYTVLIVGRI
B2: PKD2L1 (parent)
chain: YSGGGYYLDLPGSRQGSAEALRAL

Variants of: B1
Assay: protein stability index of a GFP-peptide fusion (GPS, HEK-293T) (PSI 1-6); higher = more stable
Conditions: c terminus: a fixed tail appended
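Note: lentivirally expressed fusions sorted by FACS into six bins by GFP to DsRed ratio, PSI derived from sequencing read proportions per bin multiplied by bin number.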

Protein stability index, by site and new letter:
L12: V 3.35 | Q 3.11 | S 1.92 | P 2.04 | E 3.91 | T 2.44 | W 3.73 | N 2.87 | Y 3.84 | I 1.58
I11: Y 1.36 | W 1.42 | D 3.63 | E 4.57
C1: R 2.88 | W 1.27 | K 1.68 | L 2.46 | N 2.15 | M 2.46 | I 1.83
L3: K 2.17 | E 2.54 | N 2.92 | R 2.62 | T 1.32
S13: D 2.82 | F 3.31 | N 1.87 | L 2 | I 3.33
L5: I 3.48 | W 2.12 | M 3.94 | R 2.84 | H 2.6 | Q 2.45 | E 2.46 | Y 3.19 | G 3.97
L10: K 2.9 | C 3.02 | T 3.09 | N 2.3 | W 3.03 | S 2.96
L2: C 2.93 | M 2.96 | K 1.76 | H 3.48 | Q 1.55
V9: Y 2.23 | S 3.94 | F 3.79 | D 3.2 | N 1.9 | K 1.27 | H 2.07 | T 2.25
S7: K 2.01 | H 1.81 | I 2.45 | N 2.72 | A 3.86 | T 2.51 | P 2.76 | R 1.8
G4: D 3.12 | Y 4.5 | F 3.56 | L 4.03 | C 2.73
L8: P 2.7 | I 3 | H 2.87 | D 4.51
G6: C 4.32 | F 2.27 | T 2.06 | E 3.33 | A 2.43 | Y 3.29 | I 2.69 | H 2.78 | D 3.1

Variants of: B2
Assay: as above
Conditions: c terminus: a fixed tail appended

Protein stability index: each site, then its substitutions
P11: Y 2 | W 2.52 | V 1.85
A20: K 1.74 | I 1.37 | W 2.36 | P 2.62 | Q 1.66 | Y 1.76 | N 2.02 | R 1.29 | S 2.2 | C 3.77 | L 1.72 | V 1.6 | T 2.65 | F 2.64 | D 1.86 | M 1.81 | G 1.66 | H 1.25
S13: C 2.23 | D 1.12 | M 2.4 | E 1.61 | P 1.85 | F 1.92 | L 1.5 | T 1.82 | G 2.58 | I 1.25 | N 1.38 | V 2.3 | Y 1.96 | Q 2.28 | H 1.58 | R 2.38 | A 1.45 | W 1.78 | K 1.82
E19: G 2.02 | K 1.98 | I 1.45 | W 1.74 | V 1.89 | N 1.77 | M 2.09 | L 1.84 | Q 1.63 | Y 2.23 | D 1.81 | F 2.33 | A 1.64 | C 2.27 | S 1.49 | H 1.42 | T 1.77 | R 2.16 | P 2.03
A23: V 2.45 | T 2.24 | P 2.19 | K 1.72 | G 1.44 | R 2.26 | Q 2.53 | S 1.86 | D 2.21 | W 2.22 | M 2.03 | E 1.95 | L 1.73 | H 2.09 | Y 1.53 | C 1.59 | I 1.66 | N 2.05 | F 2.52
L24: A 1.85 | S 2.41 | W 1.62 | P 2.7 | H 2.65 | R 2.34 | K 2.91 | G 2.63 | F 1.99 | V 2.33 | Y 2.12 | I 1.63 | E 1.49 | N 2.1 | T 1.61 | D 1.6 | C 1.62 | Q 1.17 | M 1.63
G12: Q 1.95 | P 2.05 | E 2 | S 2.21 | M 2.54 | R 1.59 | K 1.74 | C 1.24 | L 2.15 | D 2.09 | W 2.39 | T 1.88 | H 1.96 | F 1.57 | Y 1.49 | V 2.22 | A 2.05 | N 2.36 | I 1.55
R14: E 1.75 | S 1.57 | I 2.55 | H 1.84 | D 1.82 | M 2.08 | C 1.55 | N 1.63 | A 3.28 | P 1.37 | T 2.15 | V 1.91 | K 2.56 | W 2.36 | F 1.32 | Q 1.55 | L 2.71 | Y 2 | G 2.24
S17: T 2 | M 2.3 | L 2.13 | A 1.6 | C 1.39 | W 1.98 | G 3.5 | D 1.92 | V 1.61 | H 2.36 | Y 2.03 | F 1.98 | P 2.32 | Q 3.08 | K 1.78 | N 2.01 | I 1.75 | R 1.41 | E 2
Q15: A 2.41 | D 1.98 | R 2.27 | K 2.5 | W 1.73 | C 3.34 | T 1.21 | M 2.81 | H 1.28 | P 2.03 | E 2.16 | G 1.47 | Y 2.17 | N 1.94 | F 1.61 | V 2.99 | S 1.83 | L 1.74 | I 3.59
R22: N 1.65 | W 3.79 | P 1.78 | S 2.92 | Y 2.02 | L 1.36 | T 1.82 | K 2.08 | I 3.18 | E 1.86 | H 1.92 | Q 1.5 | D 1.26 | A 2.13 | F 2.84 | V 2.03 | M 2.61 | C 2.11 | G 1.69
G16: Q 2 | M 1.02 | R 1.98 | H 2.66 | S 2.27 | W 2.5 | K 1.97 | Y 2.13 | T 1.84 | F 1.38 | L 1.57 | V 1.77 | D 2.02 | N 1.51 | P 1.92 | E 1.92 | A 1.94 | C 1.86 | I 2.3
A18: C 2.16 | N 1.86 | T 1.35 | V 1.49 | Y 1.75 | K 2.75 | D 2.65 | W 1.61 | M 1.88 | I 1.55 | G 1.81 | Q 2.15 | S 1.5 | R 1.71 | P 1.79 | H 1.61 | E 1.71 | F 1.57 | L 2.12
L21: N 1.99 | S 2.27 | W 1.29 | R 1.25 | A 1.46 | Y 1.91 | E 1.36 | C 1.41 | T 1.86 | I 1.75 | D 1.98 | H 2.05 | V 1.8 | M 3.01 | P 2.23 | Q 1.87 | F 2.09 | K 2.26 | G 1.89
